Experimental findings from US20060058229A1, “Peptides and methods for cell death regulation” (priority 2002, published 2006) are described below.

Data set [1] deals with T1, XIAP (Homo sapiens, UniProt P98170).
T1 construct: Full length xiap was amplified by PCR and subcloned into the EcoRI, ApaI site of this pcDNA3; made in house; host or cells: in vitro transcription-translation system (Promega); UBCH5C from E. coli BL21 (pLysS)
Briefly: In vitro XIAP self-conjugation assay. Type of data set: biochemical. On the procedure: IAP-E2 Binding Assay for Measuring Self-Conjugation
^35S-methionine labeled DIAP1 or XIAP was generated in an in vitro transcription-translation system (Promega) from diap1-pET14b and xiap-pcDNA3.1 respectively. For purification of His-UBCD1 and His-UBCH5C, ubcD1-pET14b and ubcH5C-pT7-7 were expressed in BL21 (pLysS) and purfied on a Ni-column according to the manufacturer's protocol (Novagen). ^35S-DIAP1 or ^35S-XIAP was incubated with purified UBCD1 or UBCH5C respectively in the absence or presence of the W-7, H2-9 or H2-9W7 peptides. Following incubation of 15 min in room temperature in 20 mM Tris pH7.6, 2 mM DTr, Ni-NTA Agarose beads (Qiagen) were added for additional 30 minutes. The beads were subsequently washed four times with the Tis/DTT buffer, eluted with Laemli buffer and subjected to 10% SDS-PAGE. ^35S-DIAP1 or ^35S-XIAP was visualized by Phosphorimaging.
^35S-methionine labeled mutant and wild type DIAP1, or wild type XIAP were generated in an in vitro transcription-translation system (Promega) from diap1-pET14b, diap1^21-4S pET14b and xiap pcDNA3.1 plasmids. For purification of His-UBCD1 and His-UBCH5C, ubcD1-pET14b and ubcH5C-pT7-7 were expressed in BL21 (pLysS) and purified on a Ni-column according to the manufacturer's protocol (Novagen). […]

The target in data set [2] is DIAP1 (Drosophila IAP1), wild type, 35S-methionine labeled, in vitro translated from diap1-pET14b (UniProt Q24306).
The target of data set [3] is His-DIAP1 21-4S mutant (RING domain mutant, Cys 406 to Tyr), 35S-methionine labeled, in vitro translated from diap1 21-4S pET14b (UniProt Q24306).
In another data set the target is T2, Diap1 in Cos-7 cells (Drosophila melanogaster, UniProt Q24306).
T2 construct: expressed in transfected cells; host or cells: Cos-7
T2 sequence (Q24306 1-438): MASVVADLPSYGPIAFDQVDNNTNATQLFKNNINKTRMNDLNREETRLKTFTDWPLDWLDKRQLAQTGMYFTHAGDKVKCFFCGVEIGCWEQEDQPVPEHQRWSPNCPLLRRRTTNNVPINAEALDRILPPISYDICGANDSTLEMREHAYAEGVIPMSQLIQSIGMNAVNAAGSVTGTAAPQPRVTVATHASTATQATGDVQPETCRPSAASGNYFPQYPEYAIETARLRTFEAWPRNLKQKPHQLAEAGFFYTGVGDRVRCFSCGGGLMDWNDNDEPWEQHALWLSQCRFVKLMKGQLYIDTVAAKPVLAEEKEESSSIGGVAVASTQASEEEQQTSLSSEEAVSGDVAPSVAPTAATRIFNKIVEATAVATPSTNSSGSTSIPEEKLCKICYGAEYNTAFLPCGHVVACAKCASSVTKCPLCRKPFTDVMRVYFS
Briefly: Cellular stability of DIAP1 (cycloheximide chase, Western blot). The format is cell-based. The following applies: Cos-7 cells co-transfected with Diap1-Flag and RPR-HA, cycloheximide 30 minute chase. The method, then:
Cellular Stability of DIAP1
Cos-7 cells were transfected with 1 μg of wild-type (wt) Diap1-Flag-pcDNA3 along with 1 μg RPR-HA-pcDNA3 or 1 μg pcDNA3 vector (to maintain an equal amount of DNA in all transfections). Transfections were carried out by using FuGene™. 30 h aer transfection, 100 μg cycloheximide (Sigma) was added to each 60 mm dish for 0, 30, 60 min. Cells were harvested and lysed. Equal amount of protein were resolved via SDS-PAGE (10%) and blotted onto riocellulose paper. Diap1 was monitored by Western blot analysis using anti-Diap1 antibody and ECL.
In order to determine the effect of the IAP inhibitor (IAPi), Reaper's expression on IAP protein stability, a pulse-chase experiment was conducted using Cos-7 cells co-transfected with Diap1-Flag-pcDNA3 and RPR-HA-pcDNA3 or pcDNA3 vector alone treated with cycloheximide for 0, 30 or 60 minutes, followed by cell lysis, and immunoblot analysis.

Data set [4] has as its system DIAP1. Briefly: Ectopic expression (Gal4/UAS) in Drosophila imaginal discs and embryos, anti-DIAP1 labeling. Type of data set: in vivo. From the text:
Mitotic recombination was induced in the developing eye imaginal discs using the Flp-FRT method36 and ey-flipase. Gal4/UAS system was used for ectopic expression.
GST-DIAP16 was expressed in BL21 (pLysS) bacteria, and was gel purified before immunizing rabbits (Cocalico Biologicals). diap1(WT)-pET14b was used to express His-DIAP1 in BL21(pLysS) and was purified according to the manufacturer's protocol (Novagen) and immobilized on nitrocellulose paper to affinity purify anti-DIAP1 antisera Rabbit anti-β-galactosidase antibody (Cappel, ICN), mouse-anti-β-gatosdase antibody (Sigma), monoclonal anti-Engrailed antibody (Developmental Studies Hybridoma Bank), Rabbit CM1 antibody24 and mouse anti-HA antibody (Babco) were used to stain embryos and imaginal discs under standard conditions. For western blots, 6-18 h hour embryos were homogenized in the lysis buffer (20 mM Tris pH 7.5, 100 mM NaCl, 1% NP-40, 2 mM DTT) and the cell debns was spun down. The supernatant was run on 15% SDS-PAGE gels, transferred to nitrocellulose sheets and probed with Rabbit anti-DIAP1 antibody. Western blot was detected with ECL (Amersham).
IAP degradation in thymocytes is a regulated process, wherein glucocorticoids can trigger IAP degradation by unknown mechanisms. To determine whether DIAP1 degradation is also regulated in Drosophila, we co-expressed the cell death promoting protein RPR and the baculovirus p35 caspase inhibitor^21 in the wing imaginal disc posterior compartment using the engrailed (en)-Gal4 driner^22. Expression of p35 prevented RPR-expressing cells from dying, and the resulting cell population not undergoing apoptosis enabled us to observe cellular changes downstream of RPR. Whereas animals expressing RPR alone died as embryos, those compressing RPR and p35 survived to adulthood with wings indistinguishable from wild type (FIG. 2a). […] The wing imaginal discs were also labeled with CM1 antibody, which detects activated caspase-3 in humans and cross-reacts with activated caspases in Drosophila^23,24. In the control anterior compartment, sporadic apoptotic cells were intensely labeled with CM1.
Thus, the effect of the RING finger mutations on RPR-dependent DIAP1 degradation in embryos was determined. The protein distribution of DIAP1 was analyzed in embryos that express RPR under the prd-Gal4 driver (FIG. 3a, c). In wild type embryos, DIAP1 is homogenously distributed (FIG. 3b).

For data set [5], the target named is T1, XIAP. Briefly: In vitro ubiquitination reaction of 35S-XIAP. The format is biochemical. On the procedure:
(§1) In Vitro Ubiquitination Reaction
^35S-methionine labeled mutant and wild type DIAP1, or wild type XIAP were generated in an in vitro transcription-translation system (Promega) from diap1-pET14b, diap1^21-4S pET14b and xiap pcDNA3.1 plasmids. For purification of His-UBCD1 and His-UBCH5C, ubcD1-pET14b and ubcH5C-pT7-7 were expressed in BL21 (pLysS) and purified on a Ni-column according to the manufacturer's protocol (Novagen). In vitro ubiquitination assays were carried out in a total volume of 12.5 μl and contained: ^35S-methionine labeled wild type or mutant DIAP1 or Wild type XIAP (approximately 10,000 cpm), and 250 ng E1 (made in baculovirus; vector is the kind gift of Dr. Kaznbiro Iwai, University of Osaka, Osaka Japan). Unless otherwise stated, 1.2 μg His-UBCD1 or His-UBCH5C was used in each reaction Reaction mire contained also 40 mM Tris-HCl, pH 7.6, 5 mM MgCl2, 1 mM DTT, 5 μg ubiquitin, 100 ng Ubiquitin-aldehyde, 2 mM ATPγS [Adenosine 5′-O-(3-thiotriphosphate)]. Reactions were incubated for 50 min at 37° C., and resolved, following addition of a sample buffer on SDS-PAGE (10%). Gels were dried and proteins visualized via Phosphorimaging (Fuji, Japan).

Data set [6] deals with DIAP1. Briefly: In vitro ubiquitination reaction / self-conjugation of 35S-DIAP1. The format is biochemical, Drosophila. The following applies: 35S-DIAP1 with E1 and ubiquitin. On the procedure:
as §1
^35S-methionine labeled mutant and wild type DIAP1, or wild type XIAP were generated in an in vitro transcription-translation system (Promega) from diap1-pET14b, diap1^21-4S pET14b and xiap pcDNA3.1 plasmids. For purification of His-UBCD1 and His-UBCH5C, ubcD1-pET14b and ubcH5C-pT7-7 were expressed in BL21 (pLysS) and purified on a Ni-column according to the manufacturer's protocol (Novagen). In vitro ubiquitination assays were carried out in a total volume of 12.5 μl and contained: ^35S-methionine labeled wild type or mutant DIAP1 or Wild type XIAP (approximately 10,000 cpm), and 250 ng E1 (made in baculovirus; vector is the kind gift of Dr. Kaznbiro Iwai, University of Osaka, Osaka Japan). […]
In order to determine whether both amino acid consensus sequences described above are essential for IAP degradation; peptides were generated, with amino acid sequences as described in Tables 1, 3 and 5 above, containing one of each amino acid consensus sequence, or both and their ability to stimulate in vitro IAP ubiquitination was assessed (FIG. 13). ^35S-methionine labeled wild type DIAP1 was incubated with 250 ng E1 and ubiquitin, with or without the addition of the RPR wild type protein, or peptides containing the RHG amino acid consensus sequence of the RPR HID or GRIM proteins, and the reaction products were resolved by SDS-PAGE.

T1 sequence (P98170 whole entry): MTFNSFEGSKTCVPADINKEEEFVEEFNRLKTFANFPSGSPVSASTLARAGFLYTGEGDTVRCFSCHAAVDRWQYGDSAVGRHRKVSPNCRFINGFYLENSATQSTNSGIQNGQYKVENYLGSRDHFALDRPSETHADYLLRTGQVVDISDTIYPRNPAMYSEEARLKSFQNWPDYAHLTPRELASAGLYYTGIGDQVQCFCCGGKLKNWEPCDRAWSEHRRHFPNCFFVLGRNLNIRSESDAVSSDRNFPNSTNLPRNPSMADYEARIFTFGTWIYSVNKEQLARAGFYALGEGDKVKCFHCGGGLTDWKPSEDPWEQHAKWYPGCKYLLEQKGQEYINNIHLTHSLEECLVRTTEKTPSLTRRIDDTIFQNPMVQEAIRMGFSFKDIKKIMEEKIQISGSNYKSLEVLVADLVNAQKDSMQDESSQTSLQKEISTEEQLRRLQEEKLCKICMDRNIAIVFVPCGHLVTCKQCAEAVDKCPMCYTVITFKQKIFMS

Regarding “AVPFYLPE QWRFLATVVL (AVPFYLPEQWRFLATVVL; Drosophila melanogaster) [Peptide H9-W]”, in the data set with XIAP [1], the “XIAP self-conjugation in vitro” value is reported as “greatest effect”.

On to “AVAPYIPDQATLLR QWRFLATVVL (AVAFYIPDQATLLRQWRFLATVVL; Drosophila melanogaster) [Peptide R15W]”, for which the “XIAP self-conjugation in vitro” value with XIAP [1] is “greatest effect”.

Regarding “His-UBCD1 (Drosophila ubiquitin conjugating enzyme UbcD1, purified from E. coli)”, the “in vitro ubiquitination of 35S-DIAP1 (E1, His-UBCD1, ubiquitin; SDS-PAGE, Phosphorimaging)” value was “Wild-type DIAP1 (lane 4) showed marked ubiquitination” in data set [2] and “the His-DIAP1^21-4S mutant (RING domain mutant) did not (lane 7), in the presence of ubcD1” in data set [3].

B1: Reaper: Drosophila IAP inhibitor (IAPi) protein REAPER, wild type; used as protein or expressed from a transgene/plasmid (protein)
chain: MAVAFYIPDQATLLREAEQKEQQILRLRESQWRFLATVVLETLRQYTSCHPKTGRKSGKYRKPSQ
On to B1, for which the “IAP (Diap1) protein level / half-life” value with Diap1 in Cos-7 cells was “dramatic reduction in detectable IAP protein”. The “DIAP1 downregulation in embryos” value in the data set with DIAP1 [4] (RING domain mutant background, diap1 33-1S and diap1 22-8S alleles) is “no longer able to downregalate DIAP1”. For the same molecule, the “DIAP1 protein levels in embryos” value in the data set with DIAP1 [4] (expression under prd-Gal4 driver, wild type diap1) is on record as “DIAP1 protein levels decrease”. Further, the diap1-lacZ expression entry in the data set on DIAP1 [4] (wing imaginal disc posterior compartment, co-expressed with p35 under en-Gal4) is reported as “increased”. In addition, the anti-DIAP1 labeling result in the data set with DIAP1 [4] (wing imaginal disc posterior compartment, co-expressed with p35 under en-Gal4, compared to anterior compartment) is “reduced anti-DIAP1 labeling”. Further, in the data set with XIAP [5], the “auto-ubiquitination of human XIAP” value is “strongly stimulated”. The “IAP (DIAP1) self-conjugation / auto-ubiquitination in vitro” value in the data set on DIAP1 [6] is reported as “resulted in auto-ubiquitination”.
